Measured values reported in US20130316941A1 (Boehringer Ingelheim, published 2013).

Experiments:
[1] = biological target: human glucagon receptor (Glucagon-R) (human, UniProt P47871 26-477); experiment: cell-based or functional assay
[2] = biological target: human glucagon-like peptide 1 receptor (GLP-1R) (human, UniProt P43220 24-463); experiment: cell-based or functional assay

Chain of human glucagon receptor (Glucagon-R) (P47871 26-477): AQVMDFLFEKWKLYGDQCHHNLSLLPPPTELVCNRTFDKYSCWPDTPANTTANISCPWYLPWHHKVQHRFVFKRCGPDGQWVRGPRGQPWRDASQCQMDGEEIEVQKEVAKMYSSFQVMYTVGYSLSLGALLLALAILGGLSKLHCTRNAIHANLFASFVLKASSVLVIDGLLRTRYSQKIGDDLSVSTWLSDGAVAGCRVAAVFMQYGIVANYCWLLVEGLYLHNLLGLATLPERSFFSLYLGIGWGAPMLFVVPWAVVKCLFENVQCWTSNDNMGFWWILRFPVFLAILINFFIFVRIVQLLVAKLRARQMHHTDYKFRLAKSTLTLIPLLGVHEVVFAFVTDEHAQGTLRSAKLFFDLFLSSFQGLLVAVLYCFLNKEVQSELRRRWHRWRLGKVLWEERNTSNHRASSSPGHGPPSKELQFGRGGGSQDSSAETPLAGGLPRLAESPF

EC50 values for cAMP generation in HEK293 cells expressing Glucagon receptor [1] [nM]	EC50 values for cAMP generation in HEK293 cells expressing GLP-1 receptor [2] [nM]	Binder
0.06	0.06	HSQGTFTSDYSRYLDEKRARDFIEWLLSA (HELM PEPTIDE1{H.S.Q.G.T.F.T.S.D.Y.S.R.Y.L.D.E.K.R.A.R.D.F.I.E.W.L.L.S.A.[am]}|PEPTIDE2{[CCCCCCCCCCCCCCCC(=O)[*:2]].[gGlu]}$PEPTIDE1,PEPTIDE2,17:R3-2:R2$$$V2.0; SMILES CCCCCCCCCCCCCCCC(=O)N[C@@H](CCC(=O)NCCCC[C@H](NC(=O)[C@H](CCC(=O)O)NC(=O)[C@H](CC(=O)O)NC(=O)[C@H](CC(C)C)NC(=O)[C@H](Cc1ccc(O)cc1)NC(=O)[C@H](CCCNC(=N)N)NC(=O)[C@H](CO)NC(=O)[C@H](Cc1ccc(O)cc1)NC(=O)[C@H](CC(=O)O)NC(=O)[C@H](CO)NC(=O)[C@@H](NC(=O)[C@H](Cc1ccccc1)NC(=O)[C@@H](NC(=O)CNC(=O)[C@H](CCC(N)=O)NC(=O)[C@H](CO)NC(=O)[C@@H](N)Cc1c[nH]cn1)[C@@H](C)O)[C@@H](C)O)C(=O)N[C@@H](CCCNC(=N)N)C(=O)N[C@@H](C)C(=O)N[C@@H](CCCNC(=N)N)C(=O)N[C@@H](CC(=O)O)C(=O)N[C@@H](Cc1ccccc1)C(=O)N[C@H](C(=O)N[C@@H](CCC(=O)O)C(=O)N[C@@H](Cc1c[nH]c2ccccc12)C(=O)N[C@@H](CC(C)C)C(=O)N[C@@H](CC(C)C)C(=O)N[C@@H](CO)C(=O)N[C@@H](C)C(N)=O)[C@@H](C)CC)C(=O)O) [H-HSQGTFTSDYSRYLDE-K(Hexadecanoyl-isoGlu)-RARDFIEWLLSA-NH2 [Compound 7]]
0.79	1.31	HSQGTFTSDYSKYLDERRAKDFIKWLLSA (HELM PEPTIDE1{H.S.Q.G.T.F.T.S.D.Y.S.K.Y.L.D.E.R.R.A.K.D.F.I.K.W.L.L.S.A.[am]}|PEPTIDE2{[CCCCCCCCCCCCCCCC(=O)[*:2]].[gGlu]}$PEPTIDE1,PEPTIDE2,24:R3-2:R2$$$V2.0; SMILES CCCCCCCCCCCCCCCC(=O)N[C@@H](CCC(=O)NCCCC[C@H](NC(=O)[C@@H](NC(=O)[C@H](Cc1ccccc1)NC(=O)[C@H](CC(=O)O)NC(=O)[C@H](CCCCN)NC(=O)[C@H](C)NC(=O)[C@H](CCCNC(=N)N)NC(=O)[C@H](CCCNC(=N)N)NC(=O)[C@H](CCC(=O)O)NC(=O)[C@H](CC(=O)O)NC(=O)[C@H](CC(C)C)NC(=O)[C@H](Cc1ccc(O)cc1)NC(=O)[C@H](CCCCN)NC(=O)[C@H](CO)NC(=O)[C@H](Cc1ccc(O)cc1)NC(=O)[C@H](CC(=O)O)NC(=O)[C@H](CO)NC(=O)[C@@H](NC(=O)[C@H](Cc1ccccc1)NC(=O)[C@@H](NC(=O)CNC(=O)[C@H](CCC(N)=O)NC(=O)[C@H](CO)NC(=O)[C@@H](N)Cc1c[nH]cn1)[C@@H](C)O)[C@@H](C)O)[C@@H](C)CC)C(=O)N[C@@H](Cc1c[nH]c2ccccc12)C(=O)N[C@@H](CC(C)C)C(=O)N[C@@H](CC(C)C)C(=O)N[C@@H](CO)C(=O)N[C@@H](C)C(N)=O)C(=O)O) [H-HSQGTFTSDYSKYLDERRAKDFI-K(Hexadecanoyl-isoGlu)-WLLSA-NH2 [Compound 4]]
